# Assays:
# [1] = target: prostate specific membrane antigen (PSMA), full-length (human) (UniProt Q04609); assay: radiolabelled mAb bound to PSMA-3T3 cells
# [2] = target: prostate specific membrane antigen (PSMA), full-length (human) (UniProt Q04609); assay: radiolabelled mAb bound to PSMA-3T3 cells (bracket: 3T3 control)
# [3] = target: prostate specific membrane antigen (PSMA), full-length (human) (UniProt Q04609); assay: radiolabelled mAb bound to PSMA-expressing cells, average
# [4] = target: prostate specific membrane antigen (PSMA), full-length (human) (UniProt Q04609); assay: cell-based or functional assay
# Chain of prostate specific membrane antigen (PSMA), full-length (human) (Q04609 whole entry): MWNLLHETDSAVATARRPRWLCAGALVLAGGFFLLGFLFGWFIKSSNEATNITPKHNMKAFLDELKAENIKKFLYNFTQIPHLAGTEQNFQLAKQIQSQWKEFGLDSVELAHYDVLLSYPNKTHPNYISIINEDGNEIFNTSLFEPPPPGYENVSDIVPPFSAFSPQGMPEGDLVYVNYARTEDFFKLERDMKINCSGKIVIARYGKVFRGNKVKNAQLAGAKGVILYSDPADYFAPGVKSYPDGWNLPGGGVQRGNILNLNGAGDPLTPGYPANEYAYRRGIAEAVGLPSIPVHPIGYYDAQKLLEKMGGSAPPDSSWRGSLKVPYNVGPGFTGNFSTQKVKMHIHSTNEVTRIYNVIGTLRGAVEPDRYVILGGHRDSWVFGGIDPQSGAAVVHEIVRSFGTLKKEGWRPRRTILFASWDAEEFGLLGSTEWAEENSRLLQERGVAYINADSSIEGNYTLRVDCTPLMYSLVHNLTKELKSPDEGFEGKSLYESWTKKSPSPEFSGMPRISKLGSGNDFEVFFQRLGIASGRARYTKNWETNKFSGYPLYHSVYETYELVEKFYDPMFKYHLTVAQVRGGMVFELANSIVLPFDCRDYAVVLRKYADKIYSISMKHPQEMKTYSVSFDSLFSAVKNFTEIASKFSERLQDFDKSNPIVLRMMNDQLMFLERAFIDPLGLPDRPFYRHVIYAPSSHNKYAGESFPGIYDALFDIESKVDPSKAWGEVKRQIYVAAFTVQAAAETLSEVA
substance,measurement,setting,value
^111In radiolabeled CHX-A″-DTPA antibody mJ591,Immunoreactivity (%),[1],58.5%
same,Immunoreactivity (%),[2],54.9%
same,"Immunoreactivity (%), Average",[3],56.7%
mAb J591 (ATCC #HB-12126) (antibody),"LD50, immunotoxin cytotoxicity (Mab-Zap saporin secondary) on C4-2 cells",[4],88.2 pM
same,"LD50, immunotoxin cytotoxicity (Mab-Zap saporin secondary) on PSMA-3T3 cells",[4],89 pM

# — patent US20110165081A1
